Patent US10864251B2, “Peptides of syndecan-1 for inhibiting angiogenesis” (Wisconsin Alumni Research Foundation, priority 2006, dated 2020)
Like-named read-outs stand apart in the source and are kept apart here. Where no end group is shown, it is not given here.

B1: S1ED: recombinant mouse Sdc1 ectodomain (amino acids 18-251), expressed in bacteria as GST fusion or 6×His-tagged protein (protein)
chain: QPALPQIVAVNVPPEDQDGSGDDSDNFSGSGTGALPDTLSRQTPSTWKDVWLLTATPTAPEPTSSNTETAFTSVLPAGEKPEEGEPVLHVEAEPGFTARDKEKEVTTRPRETVQLPITQRASTVRVTTAQAAVTSHPHGGMQPGLHETSAPTAPGQPDHQPPRVEGGGTSVIKEVVEDGTANQLPAGEGSGEQDFTFETSGENTAVAAVEPGLRNQPPVDEGATGASQSLLDRK
modifications: left off: a dimerising Fc or GST
notes: recombinant mouse Sdc1 ectodomain (amino acids 18-251), expressed in bacteria as GST fusion or 6×His-tagged protein

Assays:
[1] = Active SSTN in blood detected on dot blots; assay type: in vivo; conditions: mouse
Protocol: Lastly, SSTN was tested in the in vivo corneal angiogenesis assay. Polyhydroxyethylmethylacrylate pellets (0.25 μL) containing 67 ng FGF-2 and sucralfate as a slow release agent were implanted into the avascular mouse cornea. After seven days, fluorescent dextran was injected suborbitally to highlight the vascular system and the mice were sacrificed. […] To supply the inhibitor in a more quantifiable and physiological manner, recombinant mS1ED or SSTN were delivered systemically via Alzet osmotic pumps implanted subcutaneously on the backs of the animals. […] To correlate this with the active concentration in the plasma, the inventors took advantage of rabbit polyclonal antibodies generated against mS1ED, which detect active SSTN on dot blots. […] Using this method to detect active SSTN in the blood collected from animals after 1 week of SSTN treatment, SSTN is shown to be in the blood at 125-150 nM when present at 10 μM in the osmotic pump.

[2] = system: segments of mouse aorta; assay type: cell-based; conditions: for block of VEGF-induced outgrowth: 50 ng/ml VEGF, 7 days
Protocol: FIG. 12—SSTN blocks aortic ring angiogenesis. Aortic segments were explanted to collagen gels for 7 days in the presence of 50 ng/ml vascular endothelial cell growth factor (VEGF), or 30 ng/ml FGF-2 in the presence or absence of mS1ED or SSTN. Total outgrowth in quantified as the total length of all microvessels.
To test the activity of SSTN as an anti-angiogenic agent, the inventors turned to the in vitro aortic ring outgrowth assay and the in vivo corneal angiogenesis model. The aortic outgrowth assay allows quantification of microvessel outgrowth from segments of mouse aorta explanted to type I collagen gels. As was found when examining the mouse aortic endothelial cell line in culture, both syndecan-1 and the αvβ3 and αvβ5 integrins appear present even on the resting mouse aorta (FIG. 11A). In addition, microvessels growing out from the aortic explant over a 7 days period in response to FGF stain positively for syndecan-1, with appears co-expressed with the αvβ3 and αvβ5 integrins (FIG. 11B). To extend this finding of syndecan-1 expression in activated endothelium, the inventors also examined two models of mouse breast tumor formation. Tumors derived from wnt-1 overexpression in the mammary gland show a high degree of vascularization, identified as internal networks lined by a thick cell layer than stains intensely for syndecan-1 and for PECAM (CD31), indicative of activated endothelium (FIG. 11C). In fact, syndecan-1 expression in these cells swamps out the positive staining for syndecan-1 seen in the mammary epithelial cells, which are known to be positive for syndecan-1. These same cell layers as positive for αv, β3 and β5 integrin subunits. A similar finding is seen in tumors arising from overexpression of β-catenin (FIG. 11C). Although the vascularization is not as extensive as in the […] tumors, there are clear thickened layers of cells that are PECAM, syndecan-1 and αvβ3/αvβ5 integrin positive in these mammary tumors.
To test the effect of SSTN on microvessel outgrowth, segments of thoracic aorta were explanted to collagen gels in the presence of either 50 ng/ml vascular endothelial cell growth factor (VEGF) or 30 ng/ml FGF-2, and incubated in the presence of either recombinant mS1ED or SSTN. Although some vessel outgrowth is observed in the absence of exogenous angiogenic agents, likely due to VEGF release by supporting cells growing out from the explant, the outgrowth is greatly (≥10-fold) increased by FGF or VEGF (FIG. 12). Addition of recombinant mS1ED blocks VEGF-induced outgrowth by more than 70% at 10 μM, and greater than 95% at 30 μM. FGF induced outgrowth requires slightly higher inhibitory concentrations (approximately 30 μM mS1ED for 70% inhibition), which may trace to a difference in susceptibility of the two integrins, as VEGF signaling is reportedly coupled to αvβ5 integrin activation and FGF signaling is coupled to αvβ3 activation. […] It should be noted that the microvessel outgrowth is accompanied by the outgrowth of support cells, most likely smooth muscle cells and fibroblasts. […] Thus, the effects of SSTN are highly localized to the vascular endothelial cells.

[3] = system: mouse aortic endothelial cells; experiment: Cell spreading on VN, mouse aortic endothelial cells; assay type: cell-based; conditions: 1 μM competitor
Protocol: FIGS. 10A-10D—Dependence of HMEC cell attachment and spreading on integrin activation by Sdc1 and its inhibition by SSTN. (FIG. 10A) HMECs were plated for 2 hr either on Sdc1-specific antibody B-B4 to engage Sdc1 or on VN (10 μg/ml coating concentration) to engage the αvβ3 and αvβ5 integrins. Blocking antibodies LM609 (10 μg/ml, specific for αvβ3) and P1F6 (10 μg/ml, specific for αvβ5), SSTN (0.5 μM) or recombinant mouse Sdc1 ectodomain (mS1ED, 5 μM) were added. The ligand mimetic antibody WOW1 was used to detect activated αvβ3 integrin on cells plated on B-B4. (FIG. 10B) HMECs were treated with siRNA oligo specific for human Sdc1 for 48 hr prior to plating on VN. Sdc1 expression was quantified by flow cytometry using human Sdc1-specific mAb B-B4 or a control mouse IgG. (FIG. 10C-10D) The percentage of cell attaching or attaching and spreading was quantified for HMECs, HAEC and MAECs plated on VN for 24 hr in the presence of mS1ED or SSTN, or after siRNA silencing of Sdc1 expression in the presence of mAb LM609 to block αvβ3 integrin, P1F6 to block αvβ5 integrin, or both antibodies.
The next test was whether agents that target Sdc1, especially competition with recombinant S1ED, will block the activity of these two integrins and thus block their interaction with VN. […]

Molecule	level at time molar at 168 h ([1]; blood, sc, after 1 week, 10 μM in the osmotic pump, read-out: concentration in the blood) [nM]	clearance rate in the plasma ([1]; suggested from blood level) [h]	IC50 [2] [nM]	concentration for 70% inhibition of FGF induced outgrowth ([2]; 30 ng/ml FGF-2, 7 days)	block of VEGF-induced outgrowth ([2]; 10 μM)	block of VEGF-induced outgrowth ([2]; 30 μM)	outgrowth of support cells (non-endothelial) ([2]; aortic ring explants)	spreading on VN [3]
SNTETAFTSVLPAGEKPEEGEPVLHVEAEPGFTARDKEKEVTTRPRETV [synstatin82-130]	125 to 150	10 to 13	100	–	–	–	–	–
B1	–	–	–	approximately 30 μM	more than 70%	greater than 95%	unaffected	blocked
